The values below come from publication PMC4933286.

In experiment [1] the target is BTV-1 VP5 mutant 2 (R10L/K13L/K14L) (bluetongue virus serotype 1 (BTV-1)). Nature of the experiment: native gel or EMSA. (Mobility shift assays separate free from complexed probe on a gel.)
In experiment [2] the target is BTV-1 VP5 mutant 3 (K3L/R6L/R10L/K13L/K14L) (bluetongue virus serotype 1 (BTV-1)). In words: native gel or EMSA.

As to “BTV-1 VP5 mutant 2 (R10L/K13L/K14L) (natural protein)”, the stoichiometry N (commonly the number of molecules, sites or subunits per partner or assembly) in experiment [1] turned out to be 3.

Regarding “BTV-1 VP5 mutant 3 (K3L/R6L/R10L/K13L/K14L) (natural protein)”, in experiment [2], the stoichiometry N turned out to be 3.
